The text below walks through data of the supplement of paper PMC10126150.

The subject of the data set is ATP. The data set can be described thus: switch fluorescence ratio, 500 uM ATP over buffer (Cy3 cluster intensity, sum of 5 cycles each) (fold (ratio)); higher = stronger signal-on switching upon ATP binding; sequences stand for … in TCGTCGGCAGCGTCAGATGTGTATAAGAGACAGTTTTTTTTTTTTTTTTTTTTTTTTT…TC. The settings on record: aptamer strand: ATP DNA aptamer (quencher-CACCTGGGGGAGTATTGCGGAGGAAGG + anchor), 100 nM annealed; ATP concentration: 500 uM. A digest of the protocol:
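Values give the fluorescence ratio for each switch-domain sequence, averaged from per-cluster ratios of summed target-cycle to summed buffer-cycle Cy3 intensity. The Cy3-labelled switching-strand clusters sat on a modified Illumina MiSeq flow-cell, were annealed to 100 nM quencher-labelled ATP aptamer, and were imaged in selection buffer, then after 15 min with 500 uM ATP at 22 °C. Five cycles ran with NaOH stripping and re-annealing between them, and clusters outside 100-1000 RFU were excluded.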

± gives the standard deviation of the averaged measurements.
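Further: ATP exposure 15 min at 22 °C before imaging.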

For TAATTTAGAT, the switch fluorescence ratio is 1.028 ± 0.0095.

For the sequence TAATTTCAAG, the switch fluorescence ratio is 1.014 ± 0.0039.

As for TAATTTCTGG, the switch fluorescence ratio is 0.9896 ± 0.0085.

TAATTTTGTG: the switch fluorescence ratio worked out at 0.975 ± 0.044.

For the sequence TACAAAGGGA, the switch fluorescence ratio came to 1.01 ± 0.027.

TACAACTCTC: the switch fluorescence ratio was 0.963 ± 0.077.

For TACAAGGCTT, the switch fluorescence ratio came out at 0.993 ± 0.027.

As for TACAAGTTCT, the switch fluorescence ratio was 0.9814 ± 0.0042.

For the sequence TACACGGTCA, the switch fluorescence ratio worked out at 1.047 ± 0.0054.

As to TACACTTCTC, the switch fluorescence ratio worked out at 1.08 ± 0.025.

As for TACAGAATCG, the switch fluorescence ratio was 1.014 ± 0.0014.

TACAGCGCGT: the switch fluorescence ratio was 1.01 ± 0.021.

Consider TACAGGCGGA, for which the switch fluorescence ratio stood at 1.02 ± 0.021.

As for TACAGGGAAC, the switch fluorescence ratio was 0.974 ± 0.014.

Turning to TACATAGTTC, the switch fluorescence ratio amounted to 1.032 ± 0.0018.

On to TACATTAATT, for which the switch fluorescence ratio is 1.02 ± 0.047.

Take TACATTGGGC: the switch fluorescence ratio was 1 ± 0.013.

Take TACCAAGTCC: the switch fluorescence ratio turned out to be 1.05 ± 0.061.

Take TACCAGCGCT: the switch fluorescence ratio is 0.993 ± 0.058.

For the sequence TACCAGGGAT, the switch fluorescence ratio came out at 1.1 ± 0.14.

As to TACCATTTAG, the switch fluorescence ratio is 0.997 ± 0.025.

In the case of TACCCCCGTT, the switch fluorescence ratio came to 1.36 ± 0.041.

For the sequence TACCGGCTCA, the switch fluorescence ratio came out at 0.999 ± 0.017.

TACCGGGGC: the switch fluorescence ratio came to 1.06 ± 0.033.

Consider TACCGGGGGG, for which the switch fluorescence ratio stood at 1.03 ± 0.029.

Consider TACCGGGGTA, for which the switch fluorescence ratio was determined as 1.01 ± 0.03.

In the case of TACCGGTCGG, the switch fluorescence ratio turned out to be 0.999 ± 0.019.

Regarding TACCGTACGA, the switch fluorescence ratio came out at 1.5 ± 0.019.

For TACCGTTTGC, the switch fluorescence ratio amounted to 1.19 ± 0.089.

On to TACCTAGGGG, for which the switch fluorescence ratio worked out at 1.06 ± 0.039.

On to TACCTCTTAA, for which the switch fluorescence ratio is 1.05 ± 0.026.

As for TACCTTCTTG, the switch fluorescence ratio was 1.176 ± 0.0027.

Take TACGAAAAGA: the switch fluorescence ratio is 1.04 ± 0.052.

For TACGAAGTCG, the switch fluorescence ratio amounted to 1.0075 ± 0.00084.

Take TACGAATAAT: the switch fluorescence ratio was 1.1 ± 0.075.

Consider TACGAGGGGA, for which the switch fluorescence ratio came out at 1.03 ± 0.026.

As to TACGAGGGTC, the switch fluorescence ratio came out at 0.969 ± 0.024.

Take TACGAGGGTG: the switch fluorescence ratio is 1.06 ± 0.034.

For TACGATACTC, the switch fluorescence ratio turned out to be 1.62 ± 0.026.

Take TACGATGAGG: the switch fluorescence ratio came to 1.05 ± 0.018.

Turning to TACGATTGGA, the switch fluorescence ratio was determined as 1.034 ± 0.0011.

For the sequence TACGATTTGG, the switch fluorescence ratio stood at 0.993 ± 0.0027.

As to TACGCATTTG, the switch fluorescence ratio is 1.08 ± 0.011.

For the sequence TACGCCATAT, the switch fluorescence ratio was found to be 1.46 ± 0.18.

As for TACGCCGGTA, the switch fluorescence ratio turned out to be 0.961 ± 0.032.

For TACGCGATTT, the switch fluorescence ratio was determined as 1.09 ± 0.08.

On to TACGGAGTGG, for which the switch fluorescence ratio is 1.06 ± 0.026.

Regarding TACGGATACA, the switch fluorescence ratio was determined as 1.18 ± 0.048.

As for TACGGCGGAA, the switch fluorescence ratio was 1.02 ± 0.047.

Regarding TACGGCTATC, the switch fluorescence ratio is 1.16 ± 0.047.

For TACGGGACGC, the switch fluorescence ratio stood at 1.12 ± 0.047.

Take TACGGGACGG: the switch fluorescence ratio amounted to 1.07 ± 0.023.

In the case of TACGGGATGT, the switch fluorescence ratio turned out to be 1.046 ± 0.0092.

As to TACGGGGACT, the switch fluorescence ratio is 1.11 ± 0.028.

On to TACGGGGGAG, for which the switch fluorescence ratio was 0.995 ± 0.02.

TACGGGGGGG: the switch fluorescence ratio worked out at 1.07 ± 0.074.

On to TACGGGGTAA, for which the switch fluorescence ratio is 0.995 ± 0.022.

On to TACGGGGTGC, for which the switch fluorescence ratio worked out at 1.07 ± 0.095.

Turning to TACGGGTGCT, the switch fluorescence ratio is 1.16 ± 0.16.

Regarding TACGGTCGAG, the switch fluorescence ratio was 1.1 ± 0.082.

Regarding TACGGTGTGC, the switch fluorescence ratio stood at 0.989 ± 0.024.

Regarding TACGGTTCGC, the switch fluorescence ratio turned out to be 1.02 ± 0.019.

As to TACGTAGGGT, the switch fluorescence ratio turned out to be 1.19 ± 0.28.

Consider TACGTATTCC, for which the switch fluorescence ratio came out at 1.171 ± 0.011.

TACGTCACCT: the switch fluorescence ratio is 1.71 ± 0.048.

For TACGTCGCTG, the switch fluorescence ratio amounted to 0.971 ± 0.023.

Take TACGTCTTAG: the switch fluorescence ratio is 0.972 ± 0.048.

TACGTGTTTT: the switch fluorescence ratio is 1 ± 0.0081.

Regarding TACGTTGAAA, the switch fluorescence ratio amounted to 1.17 ± 0.19.

TACGTTGGGG: the switch fluorescence ratio is 1 ± 0.028.

Take TACGTTTTCT: the switch fluorescence ratio came out at 1.02 ± 0.049.

TACTAATTGG: the switch fluorescence ratio amounted to 0.9961 ± 0.0086.

Take TACTACGTGC: the switch fluorescence ratio worked out at 1.28 ± 0.019.

In the case of TACTAGGCAA, the switch fluorescence ratio is 1.21 ± 0.04.

Take TACTATACGA: the switch fluorescence ratio worked out at 1.367 ± 0.0015.

Turning to TACTCCATAT, the switch fluorescence ratio is 1.14 ± 0.019.

For the sequence TACTCGTGGT, the switch fluorescence ratio was found to be 1 ± 0.064.

As to TACTCTGAAA, the switch fluorescence ratio came out at 2.38 ± 0.48.

For TACTCTGGAA, the switch fluorescence ratio turned out to be 4.15 ± 0.18.

TACTGAGTTA: the switch fluorescence ratio was 1 ± 0.015.

Take TACTGATTCA: the switch fluorescence ratio came to 1.02 ± 0.025.

For the sequence TACTGCATAG, the switch fluorescence ratio stood at 1.044 ± 0.0091.

Regarding TACTGCGGCA, the switch fluorescence ratio amounted to 1.04 ± 0.031.

As for TACTGGGCTT, the switch fluorescence ratio turned out to be 1.024 ± 0.0014.

With TACTGGGGCA, the switch fluorescence ratio was determined as 0.9842 ± 0.0028.

In the case of TACTGTGTAT, the switch fluorescence ratio was 1.01 ± 0.035.

For TACTGTTCGA, the switch fluorescence ratio was found to be 1.05 ± 0.016.

For TACTTAAAGT, the switch fluorescence ratio came out at 1 ± 0.022.

As to TACTTACTCG, the switch fluorescence ratio was 1.241 ± 0.0038.

For TACTTATCTG, the switch fluorescence ratio was determined as 1.01 ± 0.019.

Regarding TACTTCTGTG, the switch fluorescence ratio came out at 1 ± 0.018.

As to TACTTGAGGG, the switch fluorescence ratio amounted to 1.01 ± 0.019.

Regarding TACTTGGTT, the switch fluorescence ratio is 1.01 ± 0.02.

Take TACTTTGTC: the switch fluorescence ratio amounted to 1.03 ± 0.021.

In the case of TACTTTGTGA, the switch fluorescence ratio stood at 1.1 ± 0.15.

Regarding TACTTTTGGA, the switch fluorescence ratio was 1.02 ± 0.04.

For the sequence TACTTTTTAT, the switch fluorescence ratio was 1.01 ± 0.018.

For TAGAAACCCG, the switch fluorescence ratio stood at 1.04 ± 0.024.

For the sequence TAGAAAGACT, the switch fluorescence ratio worked out at 1.07 ± 0.067.

On to TAGAAATGGG, for which the switch fluorescence ratio was 1.19 ± 0.33.

For the sequence TAGAAGAAGG, the switch fluorescence ratio stood at 0.9842 ± 0.0031.

Consider TAGAAGCCCC, for which the switch fluorescence ratio was 1.09 ± 0.039.

TAGAAGCCTG: the switch fluorescence ratio stood at 1.03 ± 0.053.

On to TAGAAGGGGC, for which the switch fluorescence ratio came out at 0.989 ± 0.067.

Consider TAGAAGTTGT, for which the switch fluorescence ratio amounted to 1 ± 0.022.

Take TAGAATGGCC: the switch fluorescence ratio is 1.01 ± 0.041.

On to TAGAATGTGG, for which the switch fluorescence ratio is 0.994 ± 0.042.

TAGACCGTTC: the switch fluorescence ratio was determined as 1.108 ± 0.0068.

As for TAGACGTAGG, the switch fluorescence ratio came out at 1.03 ± 0.028.

For TAGAGAAGCC, the switch fluorescence ratio was 1.04 ± 0.025.

TAGAGAGCT: the switch fluorescence ratio stood at 1.02 ± 0.015.

With TAGAGAGGCG, the switch fluorescence ratio came out at 0.9981 ± 0.0084.

For TAGAGCTAAT, the switch fluorescence ratio stood at 1.09 ± 0.17.

For the sequence TAGAGCTGTT, the switch fluorescence ratio is 0.969 ± 0.031.

On to TAGAGGCCTG, for which the switch fluorescence ratio was 1.04 ± 0.017.

TAGAGGGATG: the switch fluorescence ratio was determined as 0.989 ± 0.015.

With TAGAGGGGAA, the switch fluorescence ratio is 1.024 ± 0.0034.

TAGAGGGGG: the switch fluorescence ratio stood at 1.01 ± 0.014.

Regarding TAGAGGTAAT, the switch fluorescence ratio is 1.01 ± 0.022.

Consider TAGAGGTCTT, for which the switch fluorescence ratio was found to be 0.98 ± 0.016.
